{"source": "patent US20210070881A1", "about": "(DENALI THERAPEUTICS, published 2021)", "key": {"[1]": {"target": "T1, recombinant BACE1 (BACE1 extracellular domain, R&D Systems Cat#931-AS) (UniProt P56817 22-457)", "T1 construct": "extracellular domain; also called BACE1 extracellular domain protein", "T1 sequence (P56817 22-457)": "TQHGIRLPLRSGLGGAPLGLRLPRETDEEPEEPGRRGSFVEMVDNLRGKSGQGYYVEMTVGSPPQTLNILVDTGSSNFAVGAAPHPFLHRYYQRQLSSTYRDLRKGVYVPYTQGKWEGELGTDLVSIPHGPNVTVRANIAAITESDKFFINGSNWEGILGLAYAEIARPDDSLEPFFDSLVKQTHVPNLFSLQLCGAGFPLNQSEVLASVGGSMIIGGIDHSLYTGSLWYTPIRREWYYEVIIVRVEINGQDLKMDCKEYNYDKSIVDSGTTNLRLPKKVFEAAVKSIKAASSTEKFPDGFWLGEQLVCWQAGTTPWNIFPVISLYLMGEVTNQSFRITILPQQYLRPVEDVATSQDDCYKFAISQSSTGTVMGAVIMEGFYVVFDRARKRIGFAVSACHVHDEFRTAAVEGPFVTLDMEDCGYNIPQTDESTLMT", "test": "SPR Biacore"}, "[2]": {"target": "T1, recombinant BACE1 (BACE1 extracellular …)", "test": "SPR Biacore T200, IgG captured, BACE1 analyte", "procedure": "The affinity of chimeric IgG antibodies for recombinant BACE1 was determined by surface plasmon resonance using a Biacore™ T200 instrument. Biacore™ Series S CMS sensor chips were immobilized with monoclonal mouse anti-human IgG (Fc) antibody (e.g., using a human antibody capture kit from GE Healthcare). 1 μg/mL of antibody was captured for 1 minute on each flow cell and serial 3-fold dilutions of recombinant BACE1 were injected at a flow rate of 30 μL/min. Each sample was analyzed with a 3-minute association and a 10-minute dissociation. After each injection, the chip was regenerated using 3M MgCl₂. Binding response was corrected by subtracting the RU from a flow cell capturing an irrelevant IgG at similar density. A 1:1 Langmuir model of simultaneous fitting of kₒₙ and koff was used for analysis of kinetics."}, "[3]": {"target": "BACE1 in primary human neurons (human, UniProt P56817 46-501)", "sequence (P56817 46-501)": "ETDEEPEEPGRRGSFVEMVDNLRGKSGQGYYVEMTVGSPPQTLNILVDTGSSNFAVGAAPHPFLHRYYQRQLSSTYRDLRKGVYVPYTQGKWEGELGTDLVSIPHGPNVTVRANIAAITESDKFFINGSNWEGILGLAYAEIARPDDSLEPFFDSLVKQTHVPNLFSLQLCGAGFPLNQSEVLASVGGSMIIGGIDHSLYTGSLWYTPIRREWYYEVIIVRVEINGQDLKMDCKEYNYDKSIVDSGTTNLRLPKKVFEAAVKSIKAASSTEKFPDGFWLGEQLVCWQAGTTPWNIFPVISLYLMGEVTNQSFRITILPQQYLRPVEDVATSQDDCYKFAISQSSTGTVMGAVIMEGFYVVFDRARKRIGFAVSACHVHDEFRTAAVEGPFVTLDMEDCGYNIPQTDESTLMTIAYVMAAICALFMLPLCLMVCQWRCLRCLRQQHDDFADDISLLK", "test": "cell-based or functional assay"}, "[4]": {"target": "T1, recombinant BACE1 (BACE1 extracellular …)", "test": "SPR Biacore", "remark": "listed apart in the source"}, "[5]": {"target": "cellular BACE1 in CHOK1-huAPP cells", "test": "cell-based or functional assay"}, "[6]": {"target": "cellular BACE1 in CHOK1-huAPP cells", "test": "cell-based or functional assay", "remark": "listed apart in the source"}, "[7]": {"target": "cellular BACE1 in CHOK1-huAPP cells", "test": "cell-based or functional assay", "remark": "listed apart in the source"}, "[8]": {"target": "cellular BACE1 in CHOK1-huAPP cells", "test": "cell-based or functional assay", "remark": "listed apart in the source"}, "human TfR [9]": {"target": "T2, human TfR (human, UniProt P02786 89-760, limits assumed)", "T2 construct": "Protein coated on ELISA plates; also called human transferrin receptor protein 1", "T2 sequence (P02786 89-760 limits assumed)": "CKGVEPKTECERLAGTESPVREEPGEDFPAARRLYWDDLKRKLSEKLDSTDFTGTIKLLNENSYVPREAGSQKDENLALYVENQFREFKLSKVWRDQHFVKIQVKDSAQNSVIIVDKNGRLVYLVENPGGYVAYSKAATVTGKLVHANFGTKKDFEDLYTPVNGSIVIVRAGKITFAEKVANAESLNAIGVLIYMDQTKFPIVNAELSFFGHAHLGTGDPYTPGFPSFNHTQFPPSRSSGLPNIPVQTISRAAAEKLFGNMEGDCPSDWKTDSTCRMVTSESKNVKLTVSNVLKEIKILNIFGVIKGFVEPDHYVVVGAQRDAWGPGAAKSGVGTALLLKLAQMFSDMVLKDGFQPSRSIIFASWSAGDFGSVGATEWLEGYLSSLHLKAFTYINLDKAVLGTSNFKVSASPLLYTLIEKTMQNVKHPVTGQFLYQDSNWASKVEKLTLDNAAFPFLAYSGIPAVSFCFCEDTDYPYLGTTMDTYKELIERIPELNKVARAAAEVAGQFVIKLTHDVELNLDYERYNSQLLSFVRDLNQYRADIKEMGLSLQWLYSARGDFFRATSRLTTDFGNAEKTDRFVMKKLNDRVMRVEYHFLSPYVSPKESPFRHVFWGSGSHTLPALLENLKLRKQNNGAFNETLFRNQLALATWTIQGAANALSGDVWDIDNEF", "test": "soft-randomization libraries selected on TfR"}, "human TfR [10]": {"target": "T2, human TfR", "test": "ELISA, TfR coated, Fab-Fc fusion", "procedure": "Binding ELISAs were conducted with purified Fab-Fc fusion variants with human or cyno TfR coated on the plate, as described above. The variants from the clone CH3C.18 maturation library, clone CH3C.3.2-1, clone CH3C.3.2-5, and clone CH3C.3.2-19, bound human and cyno TfR with approximately equivalent EC₅₀ values, whereas the parent clones CH3C.18 and CH3C.35 had greater than 10-fold better binding to human versus cyno TfR."}}, "note": "Read-outs that look alike come from different tables or passages of the source.", "data": [{"binder": "2H8 (antibody, human IgG1, V domains shown, chimeric, human IgG1/kappa; also called Clone 2H8; 2H8.01) VH: EVQLQQSGPELVKPGASVKLSCKASGYTFTNFWIHWLKQRPGQGLEWIGMIDPSDSYTKYNQKFKAKATLTVDTSSSTTYMHLSSLTSEDSAVYYCARSGVAFPYWGQRTLVTVSA VL: DIVMTQSQKFMSKSVGDTVSVTCKASQDVGRNVAWYQQKSGQSPKSLIYSASHRYSGVPDRFTGSGSGTDFTLTISNVQSEDLADYFCQQYNSYPYTFGGGTRLEIK", "values": [{"measurement": "Kd", "setting": "[1]", "result": 14.8, "unit": "nM"}, {"measurement": "koff", "setting": "[1]", "result": 0.000316, "unit": "s⁻¹"}, {"measurement": "kon", "setting": "[1]", "result": 21400, "unit": "M⁻¹ s⁻¹"}, {"measurement": "Kd", "setting": "[2]", "result": 6.3, "unit": "nM"}, {"measurement": "koff", "setting": "[2]", "result": 0.00019, "unit": "s⁻¹"}, {"measurement": "kon", "setting": "[2]", "result": 30000, "unit": "M⁻¹ s⁻¹"}, {"measurement": "IC50 of Aβ40 formation, primary human neurons", "setting": "[3]", "result": 15, "unit": "nM"}, {"measurement": "Kd", "setting": "[4]", "result": 14.8, "unit": "nM"}, {"measurement": "% Max Inhibition", "setting": "[5]", "result": 71, "unit": "%"}, {"measurement": "Cellular IC50", "setting": "[5]", "result": 16, "unit": "nM"}, {"measurement": "IC50", "setting": "[6]", "result": 25, "unit": "nM"}, {"measurement": "Max. % inhibition", "setting": "[6]", "result": 82, "unit": "%"}, {"measurement": "IC50", "setting": "[7]", "result": 24.8, "unit": "nM"}, {"measurement": "Max. % inhibition", "setting": "[7]", "result": 82, "unit": "%"}]}, {"binder": "Clone35.23.4:2H8/2H8 (antibody, V domains shown) VH: QVQLVQSGAEVKKPGASVKVSCKASGYTFTNFWIHWVRQAPGQGLEWMGMIDPSSSYTKYNQKFKARATLTVDTSTSTVYMELSSLRSEDTAVYYCARSGASLPYWGQGTLVTVSS VL: DIQMTQSPSSLSASVGDRVTITCKASQDVGRNVAWYQQKPGKSPKSLIYSASHYYSGVPSRFSGSGSGTDFTLTISSLQPEDFATYFCQQYYSYPYTFGQGTKVEIK", "values": [{"measurement": "cellular IC50 (human Aβ40, CHO-huAPP cells)", "setting": "[8]", "result": 10, "unit": "nM"}]}, {"binder": "Clone CH3C.21 (designed binder, modified Fc polypeptide) APELLGGPSVFLFPPKPKDTLMISRTPEVTCVVVDVSHEDPEVKFNWYVDGVEVHNAKTKPREEQYNSTYRVVSVLTVLHQDWLNGKEYKCKVSNKALPAPIEKTISKAKGQPREPQVYTLPPSRDELTKNQVSLTCLVKGFYPSDIAVEWESLGLVWVGYKTTPPVLDSDGSFFLYSKLTVPKSTWQQGWVFSCSVMHEALHNHYTQKSLSLSPGK", "values": [{"measurement": "binding result", "setting": "human TfR [9]", "result": "binds"}]}, {"binder": "Clone CH3C.25 (designed binder, modified Fc polypeptide) APELLGGPSVFLFPPKPKDTLMISRTPEVTCVVVDVSHEDPEVKFNWYVDGVEVHNAKTKPREEQYNSTYRVVSVLTVLHQDWLNGKEYKCKVSNKALPAPIEKTISKAKGQPREPQVYTLPPSRDELTKNQVSLTCLVKGFYPSDIAVEWESMGHVWVGYKTTPPVLDSDGSFFLYSKLTVDKSTWQQGWVFSCSVMHEALHNHYTQKSLSLSPGK", "values": [{"measurement": "binding result", "setting": "human TfR [9]", "result": "binds"}]}, {"binder": "Clone CH3C.51 (designed binder, modified Fc polypeptide) APELLGGPSVFLFPPKPKDTLMISRTPEVTCVVVDVSHEDPEVKFNWYVDGVEVHNAKTKPREEQYNSTYRVVSVLTVLHQDWLNGKEYKCKVSNKALPAPIEKTISKAKGQPREPQVYTLPPSRDELTKNQVSLTCLVKGFYPSDIAVEWESLGHVWVGYKTTPPVLDSDGSFFLYSKLTVSKSEWQQGWVFSCSVMHEALHNHYTQKSLSLSPGK", "values": [{"measurement": "binding result", "setting": "human TfR [9]", "result": "binds"}]}, {"binder": "Clone CH3C.3.2-1 (designed binder, modified Fc polypeptide; tested as purified Fab-Fc fusion, Fab not identified) APELLGGPSVFLFPPKPKDTLMISRTPEVTCVVVDVSHEDPEVKFNWYVDGVEVHNAKTKPREEQYNSTYRVVSVLTVLHQDWLNGKEYKCKVSNKALPAPIEKTISKAKGQPREPQVYTLPPSRDELTKNQVSLTCLVKGFYPSDIAVEWESLGHVWVNFKTTPPVLDSDGSFFLYSKLTVPKSTWQQGWVFSCSVMHEALHNHYTQKSLSLSPGK", "values": [{"measurement": "binding result", "setting": "human TfR [10]", "result": "binds"}]}, {"binder": "Clone CH3C.17 (designed binder, modified Fc polypeptide) APELLGGPSVFLFPPKPKDTLMISRTPEVTCVVVDVSHEDPEVKFNWYVDGVEVHNAKTKPREEQYNSTYRVVSVLTVLHQDWLNGKEYKCKVSNKALPAPIEKTISKAKGQPREPQVYTLPPSRDELTKNQVSLTCLVKGFYPSDIAVEWESYGTVWSKYKTTPPVLDSDGSFFLYSKLTVSKSEWQQGFVFSCSVMHEALHNHYTQKSLSLSPGK", "values": [{"measurement": "binding result", "setting": "human TfR [9]", "result": "binds"}]}, {"binder": "Clone CH3C.44 (designed binder, modified Fc polypeptide) APELLGGPSVFLFPPKPKDTLMISRTPEVTCVVVDVSHEDPEVKFNWYVDGVEVHNAKTKPREEQYNSTYRVVSVLTVLHQDWLNGKEYKCKVSNKALPAPIEKTISKAKGQPREPQVYTLPPSRDELTKNQVSLTCLVKGFYPSDIAVEWESYGTEWSNYKTTPPVLDSDGSFFLYSKLTVSKSEWQQGFVFSCSVMHEALHNHYTQKSLSLSPGK", "values": [{"measurement": "binding result", "setting": "human TfR [9]", "result": "binds"}]}, {"binder": "Clone CH3C.34 (designed binder, modified Fc polypeptide) APELLGGPSVFLFPPKPKDTLMISRTPEVTCVVVDVSHEDPEVKFNWYVDGVEVHNAKTKPREEQYNSTYRVVSVLTVLHQDWLNGKEYKCKVSNKALPAPIEKTISKAKGQPREPQVYTLPPSRDELTKNQVSLTCLVKGFYPSDIAVEWESLGLVWVFSKTTPPVLDSDGSFFLYSKLTVPKSTWQQGWVFSCSVMHEALHNHYTQKSLSLSPGK", "values": [{"measurement": "binding result", "setting": "human TfR [9]", "result": "binds"}]}]}
